# Assay results: patent US12065471B2, “B*44 restricted peptides for use in immunotherapy against cancers and related methods” (Immatics Biotechnologies GmbH, priority 2018, dated 2024)
# Columns and labels:
# HLA-B*44:05 = HLA-B*44:05 (Homo sapiens, UniProt P01889, A223V/A65T/A93T/A95T/D201E/D98Y/E176V/E187L/E204Q/E69K/G107R/H137Y/K202T/L105A/L119I/N104T/N87E/Q56L/Q94N/R106L/R155S/R180D/S101N/S121R/S35A/S48T/T118I/V36M/W191S/Y91S); assay: MHC binding assay (UV-ligand exchange, β2m ELISA, peptide exchange yield); conditions: binding to HLA-B*44:05
# Outline: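 Peptide–HLA complexes formed by UV-ligand exchange of a UV-cleavable peptide for the test peptide. Exchange yield measured by β2m ELISA: complexes diluted 100-fold and captured on streptavidin, detected with HRP anti-β2m and TMB, read at 450 nm. Quantified against refolded HLA-A*02:01/MLA-001 monomer standards, 15-500 ng/ml.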
# CD8+ T cells = assay: In vitro immunogenicity: T-cell priming with aAPCs loaded with peptide/MHC and anti-CD28, pMHC multimer readout; format: cell-based, human; conditions: Table 10b, pMHC multimer readout after T-cell priming
# Experimental: After three cycles of stimulation, the detection of peptide-reactive cells was performed by 2D multimer staining with B*44/SEQ ID NO: 469 (FIG. 3A), B*44/SEQ ID NO: 512 (FIG. 3B), B*44/SEQ ID NO: 9 (FIG. 3C), B*44/SEQ ID NO: 11 (D), B*44/SEQ ID NO: 17 (E), B*44/SEQ ID NO: 35 (F) or B*44/SEQ ID NO: 41 (FIG. 3G). Right panels (FIGS. 3A through 3G) show control staining of cells stimulated with irrelevant B*44/peptide complexes. Viable singlet cells were gated for CD8+ lymphocytes. Boolean gates helped excluding false-positive events detected with multimers specific for different peptides.
# In order to obtain information regarding the immunogenicity of the TUMAPs of the present invention, the inventors performed investigations using an in vitro T-cell priming assay based on repeated stimulations of CD8+ T cells with artificial antigen presenting cells (aAPCs) loaded with peptide/MHC complexes and anti-CD28 antibody.
# In order to perform in vitro stimulations by artificial antigen presenting cells loaded with peptide-MHC complex (pMHC) and anti-CD28 antibody, the inventors first isolated CD8+ T cells from fresh HLA-A*02 leukapheresis products via positive selection using CD8 microbeads (Miltenyi Biotec, Bergisch-Gladbach, Germany) of healthy donors obtained from the University clinics Mannheim, Germany, after informed consent.
# PBMCs and isolated CD8+ lymphocytes were incubated in T-cell medium (TCM) until use consisting of RPMI-Glutamax (Invitrogen, Karlsruhe, Germany) supplemented with 10% heat inactivated human AB serum (PAN-Biotech, Aidenbach, Germany), 100 U/ml Penicillin/100 μg/ml Streptomycin (Cambrex, Cologne, Germany), 1 mM sodium pyruvate (CC Pro, Oberdorda, Germany), 20 μg/ml Gentamycin (Cambrex). 2.5 ng/ml IL-7 (PromoCell, Heidelberg, Germany) and 10 U/ml IL-2 (Novartis Pharma, Nümberg, Germany) were also added to the TCM at this step.
# Generation of pMHC/anti-CD28 coated beads, T-cell stimulations and readout was performed in a highly defined in vitro system using four different pMHC molecules per stimulation condition and 8 different pMHC molecules per readout condition.
# The purified co-stimulatory mouse IgG2a anti human CD28 Ab 9.3 (Jung et al., 1987) was chemically biotinylated using Sulfo-N-hydroxysuccinimidobiotin as recommended by the manufacturer (Perbio, Bonn, Germany). Beads used were 5.6 μm diameter streptavidin coated polystyrene particles (Bangs Laboratories, Illinois, USA).
# 800.000 beads/200 μl were coated in 96-well plates in the presence of 4×12.5 ng different biotin-pMHC, washed and 600 ng biotin anti-CD28 were added subsequently in a volume of 200 μl. Stimulations were initiated in 96-well plates by co-incubating 1×10^6 CD8+ T cells with 2×10^5 washed coated beads in 200 μl TCM supplemented with 5 ng/ml IL-12 (PromoCell) for 3 days at 37° C. Half of the medium was then exchanged by fresh TCM supplemented with 80 U/ml IL-2 and incubating was continued for 4 days at 37° C. This stimulation cycle was performed for a total of three times. For the pMHC multimer readout using 8 different pMHC molecules per condition, a two-dimensional combinatorial coding approach was used as previously described (Andersen et al., 2012) with minor modifications encompassing coupling to 5 different fluorochromes. Finally, multimeric analyses were performed by staining the cells with Live/dead near IR dye (Invitrogen, Karlsruhe, Germany), CD8-FITC antibody clone SK1 (BD, Heidelberg, Germany) and fluorescent pMHC multimers. For analysis, a BD LSRII SORP cytometer equipped with appropriate lasers and filters was used. Peptide specific cells were calculated as percentage of total CD8+ cells. Evaluation of multimeric analysis was done using the FlowJo software (Tree Star, Oregon, USA). In vitro priming of specific multimer+CD8+ lymphocytes was detected by comparing to negative control stimulations.
Substance,"Peptide exchange (MHC class I binding score, peptide exchange yield) (HLA-B*44:05)",Wells positive [%] (CD8+ T cells)
40 (REVDPDDSYVF; listed as Homo sapiens) [compound 40],+++ (>50 = +++),+ (<20% = +)
11 (EENIVAIGI; listed as Homo sapiens) [compound 11],+++ (>50 = +++),+++ (50%-69% = +++)
39 (AEAMGKFKQCF; listed as Homo sapiens) [compound 39],+++ (>50 = +++),+ (<20% = +)
51 (VEMTGKHQL; listed as Homo sapiens) [compound 51],++ (>20% = ++),++ (20%-49% = ++)
61 (AEYSVHKI; listed as Homo sapiens) [compound 61],+++ (>50 = +++),+ (<20% = +)
42 (SEENTGKTYF; listed as Homo sapiens) [compound 42],+++ (>50 = +++),++ (20%-49% = ++)
62 (AEYSVHKITSTF; listed as Homo sapiens) [compound 62],++++ (>75% = ++++),+ (<20% = +)
59 (AEIEADRSYQ; listed as Homo sapiens) [compound 59],++ (>20% = ++),+ (<20% = +)
41 (EENTGKTYF; listed as Homo sapiens) [compound 41],+++ (>50 = +++),++ (20%-49% = ++)
83 (TEGGTQKTF; listed as Homo sapiens) [compound 83],+++ (>50 = +++),++++ (>=70% = ++++)
15 (MEAELVRRI; listed as Homo sapiens) [compound 15],+++ (>50 = +++),+ (<20% = +)
54 (QEISAHRTEF; listed as Homo sapiens) [compound 54],+++ (>50 = +++),+ (<20% = +)
79 (TEAQRLDCW; listed as Homo sapiens) [compound 79],+++ (>50 = +++),+ (<20% = +)
45 (EEINELNRMI; listed as Homo sapiens) [compound 45],+++ (>50 = +++),+++ (50%-69% = +++)
16 (NESDRLVYF; listed as Homo sapiens) [compound 16],+++ (>50 = +++),++ (20%-49% = ++)
18 (QEAPRPASSL; listed as Homo sapiens) [compound 18],+++ (>50 = +++),+ (<20% = +)
66 (AEVTLNNTI; listed as Homo sapiens) [compound 66],+++ (>50 = +++),+ (<20% = +)

Substance,"Peptide exchange (MHC class I binding score, peptide exchange yield) (HLA-B*44:05)",Wells positive [%] (CD8+ T cells)
56 (ALEEGGGYIF; listed as Homo sapiens) [compound 56],+ (>10% = +),+ (<20% = +)
6 (AELVGPVIPQDW; listed as Homo sapiens) [compound 6],+++ (>50 = +++),++ (20%-49% = ++)
7 (SESDLVNFI; listed as Homo sapiens) [compound 7],+++ (>50 = +++),+ (<20% = +)
31 (MESAKETRY; listed as Homo sapiens) [compound 31],+++ (>50 = +++),+ (<20% = +)
422 (EEAQWVRKYF; listed as Homo sapiens) [compound 422],+++ (>50 = +++),++++ (>=70% = ++++)
44 (SEFGAPRW; listed as Homo sapiens) [compound 44],+++ (>50 = +++),++++ (>=70% = ++++)
17 (SEIYQPRGF; listed as Homo sapiens) [compound 17],+++ (>50 = +++),++++ (>=70% = ++++)
60 (EEAVRSVAF; listed as Homo sapiens) [compound 60],+++ (>50 = +++),++ (20%-49% = ++)
13 (VEAQDRETW; listed as Homo sapiens) [compound 13],++ (>20% = ++),++ (20%-49% = ++)
421 (TEDYSKQAL; listed as Homo sapiens) [compound 421],+++ (>50 = +++),+ (<20% = +)
24 (EELALRIGL; listed as Homo sapiens) [compound 24],+++ (>50 = +++),++++ (>=70% = ++++)
71 (AEVGDIIKV; listed as Homo sapiens) [compound 71],++ (>20% = ++),++ (20%-49% = ++)
20 (LEALLSDLF; listed as Homo sapiens) [compound 20],+++ (>50 = +++),++ (20%-49% = ++)
70 (AEAEEAMKRL; listed as Homo sapiens) [compound 70],+++ (>50 = +++),++ (20%-49% = ++)
33 (IEYENQKRL; listed as Homo sapiens) [compound 33],++ (>20% = ++),++ (20%-49% = ++)
69 (DENIQKFIW; listed as Homo sapiens) [compound 69],+++ (>50 = +++),++ (20%-49% = ++)
53 (KEDNPSGHTY; listed as Homo sapiens) [compound 53],+++ (>50 = +++),++ (20%-49% = ++)
